Results published in the supplement of paper PMC10567573.

B1: HSP90AB1 (parent)
chain: TLRQKAEADKNDKAVKDLVVLLFE

Variants of: B1
Assay: protein stability index of a GFP-peptide fusion (GPS, HEK-293T) (PSI 1-6); higher = more stable
Details: c terminus: a fixed tail appended
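Also: lentivirally expressed fusions sorted by FACS into six bins by GFP to DsRed ratio, PSI derived from sequencing read proportions per bin multiplied by bin number.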

Going from TLRQKAEADKNDKAVKDLVGLLFE [V20G] to TLRQKAEADKNDKAVKDLVLLLFE [V20L], the protein stability index falls from 3.64 to 3.13.

Compared with TLRQKAEADKADKAVKDLVVLLFE [N11A], TLRQKAEADKDDKAVKDLVVLLFE [N11D] is lower in protein stability index: 3 for the first, 2.84 for the second.

Compared with TLRQKAEADKFDKAVKDLVVLLFE [N11F], TLRQKAEADKEDKAVKDLVVLLFE [N11E] is higher in protein stability index: 3.09 for the first, 3.21 for the second.

Compared with TLRQKAEADKKDKAVKDLVVLLFE [N11K], TLRQKAEADKRDKAVKDLVVLLFE [N11R] is higher in protein stability index: 2.43 for the first, 3.15 for the second.

First: TLRQKAEADKMDKAVKDLVVLLFE [N11M]
Second: TLRQEAEADKNDKAVKDLVVLLFE [K5E]
The protein stability index of the first is lower: 3.11 for the first, 3.38 for the second.

Compared with TLRQHAEADKNDKAVKDLVVLLFE [K5H], TLRQYAEADKNDKAVKDLVVLLFE [K5Y] is higher in protein stability index: 3.01 for the first, 3.26 for the second.

Going from TLRQRAEADKNDKAVKDLVVLLFE [K5R] to TLRQMAEADKNDKAVKDLVVLLFE [K5M], the protein stability index rises from 3 to 3.48.

Compared with TLRQKAEADKNDKAVKDLCVLLFE [V19C], TLRQKAEADKNDKAVKDLMVLLFE [V19M] is lower in protein stability index: 3.16 for the first, 2.44 for the second.

Compared with TLRQKAEADKNDKAVKDLGVLLFE [V19G], TLRQKAEADKNDKAVKDLRVLLFE [V19R] is higher in protein stability index: 4.16 for the first, 4.18 for the second.

Going from TLRQKAEADKNDKAVKDLHVLLFE [V19H] to TLRQKAEADKNDKAVKDLTVLLFE [V19T], the protein stability index falls from 4.22 to 4.13.

Compared with TLRQKAEADKNDKAVKDLVVLMFE [L22M], TLRQKAEADKNDKAVKDLVVLPFE [L22P] is higher in protein stability index: 3.15 for the first, 4.97 for the second.

Going from TLRQKAEADKNDKAVKDLVVLSFE [L22S] to TLRQKAEADKNDKAVKDLVVLVFE [L22V], the protein stability index falls from 4.34 to 3.73.

First: TLRQKAEADKNDKAVKDLVVLRFE [L22R]
Second: TLRQKAEADKNDKAVKDLVVLNFE [L22N]
The protein stability index of the first is lower: 3.9 for the first, 4.2 for the second.

First: TLRQKAEADKNDKAVKDLVVLGFE [L22G]
Second: ELRQKAEADKNDKAVKDLVVLLFE [T1E]
The protein stability index of the first is higher: 4.5 for the first, 3.92 for the second.

Compared with FLRQKAEADKNDKAVKDLVVLLFE [T1F], DLRQKAEADKNDKAVKDLVVLLFE [T1D] is higher in protein stability index: 2.42 for the first, 3.58 for the second.

Compared with CLRQKAEADKNDKAVKDLVVLLFE [T1C], MLRQKAEADKNDKAVKDLVVLLFE [T1M] is higher in protein stability index: 2.26 for the first, 3.02 for the second.

First: SLRQKAEADKNDKAVKDLVVLLFE [T1S]
Second: NLRQKAEADKNDKAVKDLVVLLFE [T1N]
The protein stability index of the first is higher: 4.38 for the first, 2.57 for the second.

Going from VLRQKAEADKNDKAVKDLVVLLFE [T1V] to YLRQKAEADKNDKAVKDLVVLLFE [T1Y], the protein stability index rises from 2.52 to 2.63.

First: GLRQKAEADKNDKAVKDLVVLLFE [T1G]
Second: TLRQKAEADKNDSAVKDLVVLLFE [K13S]
The protein stability index of the first is higher: 3.53 for the first, 2.99 for the second.

Going from TLRQKAEADKNDPAVKDLVVLLFE [K13P] to TLRQKAEADKNDEAVKDLVVLLFE [K13E], the protein stability index rises from 3.22 to 3.39.

Compared with TLRQKAEADKNDTAVKDLVVLLFE [K13T], TLRQKAEADKNDQAVKDLVVLLFE [K13Q] is higher in protein stability index: 2.96 for the first, 3.21 for the second.

Compared with TLRQKAEADKNDHAVKDLVVLLFE [K13H], TLRQKAEADKNDNAVKDLVVLLFE [K13N] is higher in protein stability index: 2.46 for the first, 2.85 for the second.

First: TLRQKAEADKNDYAVKDLVVLLFE [K13Y]
Second: TLRQKAEADKNDMAVKDLVVLLFE [K13M]
The protein stability index of the first is lower: 2.2 for the first, 2.75 for the second.

Compared with TLRQKAEADKNDKMVKDLVVLLFE [A14M], TLRQKAEADKNDKGVKDLVVLLFE [A14G] is higher in protein stability index: 2.73 for the first, 3.17 for the second.

First: TLRQKAEADKNDKLVKDLVVLLFE [A14L]
Second: TLRQKAEADKNDKNVKDLVVLLFE [A14N]
The protein stability index of the first is higher: 2.63 for the first, 2.56 for the second.

Compared with TLRQKAEADKNDKSVKDLVVLLFE [A14S], TLRQKAEADKNDKCVKDLVVLLFE [A14C] is higher in protein stability index: 2.26 for the first, 2.35 for the second.

First: TLRQKAEADKNDKVVKDLVVLLFE [A14V]
Second: TLRQKAEADKNDKPVKDLVVLLFE [A14P]
The protein stability index of the first is lower: 2.44 for the first, 2.99 for the second.

First: TLRQKAEADKNDKWVKDLVVLLFE [A14W]
Second: TLRQKAEADKNDKAVKDLVVLLFY [E24Y]
The protein stability index of the first is higher: 2.68 for the first, 2.21 for the second.

Compared with TLRQKAEADKNDKAVKDLVVLLFR [E24R], TLRQKAEADKNDKAVKDLVVLLFP [E24P] is lower in protein stability index: 2.04 for the first, 1.71 for the second.

Compared with TLRQKAEADKNDKAVKDLVVLLFA [E24A], TLRQKAEADKNDKAVKDLVVLLFS [E24S] is higher in protein stability index: 1.89 for the first, 2.19 for the second.

Going from TLRQKAEADKNDKAVKDLVVLLFL [E24L] to TLRQKAEADKNDKAVKDLVVLLFQ [E24Q], the protein stability index rises from 2.54 to 2.64.

Compared with TLRQKAEADKNDKAVKDLVVLLFM [E24M], TLRQKAEADKNDKAVKDLVVRLFE [L21R] is higher in protein stability index: 1.83 for the first, 3.31 for the second.

First: TLRQKAEADKNDKAVKDLVVWLFE [L21W]
Second: TLRQKAEADKNDKAVKDLVVTLFE [L21T]
The protein stability index of the first is lower: 1.73 for the first, 3.5 for the second.

Compared with TLRQKAEADKNDKAVKDLVVNLFE [L21N], TLRQKAEADKNDKAVKDLVVFLFE [L21F] is lower in protein stability index: 3.89 for the first, 2.35 for the second.

First: TLRQKAEADKNDKAVKDEVVLLFE [L18E]
Second: TLRQKAEADKNDKAVKDIVVLLFE [L18I]
The protein stability index of the first is higher: 4.04 for the first, 2.95 for the second.

Compared with TLRQKAEADKNDKAVKDCVVLLFE [L18C], TLRQKAEADKNDKAVKDHVVLLFE [L18H] is higher in protein stability index: 2.85 for the first, 3.3 for the second.

Going from TLRQKAEADKNDKAVKDWVVLLFE [L18W] to TLRQKAEADKNDKAVKDGVVLLFE [L18G], the protein stability index rises from 3.19 to 3.69.

Going from TLRQKAEADKNDKAVKDFVVLLFE [L18F] to TLRQKAEADKNDKAVKDYVVLLFE [L18Y], the protein stability index rises from 2.24 to 2.87.

Going from TLRQKAEADKNDKAVKDNVVLLFE [L18N] to TLRQKAEEDKNDKAVKDLVVLLFE [A8E], the protein stability index falls from 4.19 to 3.16.

Compared with TLRQKAEVDKNDKAVKDLVVLLFE [A8V], TLRQKAELDKNDKAVKDLVVLLFE [A8L] is lower in protein stability index: 3.27 for the first, 2.38 for the second.

TLRQKAERDKNDKAVKDLVVLLFE [A8R] and TLRQKAECDKNDKAVKDLVVLLFE [A8C] are the same in protein stability index: 2.87 for the first, 2.87 for the second.

First: TLRQKAEWDKNDKAVKDLVVLLFE [A8W]
Second: TLRQKAEADKNDKAVKWLVVLLFE [D17W]
The protein stability index of the first is higher: 3.03 for the first, 2.62 for the second.

Going from TLRQKAEADKNDKAVKCLVVLLFE [D17C] to TLRQKAEADKNDKAVKALVVLLFE [D17A], the protein stability index rises from 1.83 to 1.99.

Going from TLRQKAEADKNDKAVKHLVVLLFE [D17H] to TLRQKAEADKNDKAVKYLVVLLFE [D17Y], the protein stability index falls from 2.52 to 1.91.

Going from TLGQKAEADKNDKAVKDLVVLLFE [R3G] to TLDQKAEADKNDKAVKDLVVLLFE [R3D], the protein stability index rises from 2.72 to 3.57.

Going from TLFQKAEADKNDKAVKDLVVLLFE [R3F] to TLEQKAEADKNDKAVKDLVVLLFE [R3E], the protein stability index rises from 2.8 to 3.17.

First: TLYQKAEADKNDKAVKDLVVLLFE [R3Y]
Second: TLHQKAEADKNDKAVKDLVVLLFE [R3H]
The protein stability index of the first is lower: 2.35 for the first, 2.84 for the second.
